Target: FcγRI (UniProt P12314)
Assay: BLI

UniProt P12314, sequence (P12314 16-374): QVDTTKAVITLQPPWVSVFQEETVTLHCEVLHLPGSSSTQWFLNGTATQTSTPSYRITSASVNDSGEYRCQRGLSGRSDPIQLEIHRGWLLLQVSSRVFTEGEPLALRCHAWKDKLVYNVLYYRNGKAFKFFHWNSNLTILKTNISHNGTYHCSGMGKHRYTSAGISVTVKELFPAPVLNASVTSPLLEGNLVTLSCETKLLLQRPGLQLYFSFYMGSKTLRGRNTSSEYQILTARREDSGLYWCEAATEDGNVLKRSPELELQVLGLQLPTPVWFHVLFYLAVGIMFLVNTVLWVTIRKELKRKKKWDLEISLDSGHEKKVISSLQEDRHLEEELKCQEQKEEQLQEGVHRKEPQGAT

Kd: 10 nM
Substance: Sintilimab (antibody)
